# Laboratory results taken from article PMC10965056.
# Tested on: T1, PsdR-His (Pseudomonas aeruginosa PAO1?), ORF:604e189e
# T1 sequence: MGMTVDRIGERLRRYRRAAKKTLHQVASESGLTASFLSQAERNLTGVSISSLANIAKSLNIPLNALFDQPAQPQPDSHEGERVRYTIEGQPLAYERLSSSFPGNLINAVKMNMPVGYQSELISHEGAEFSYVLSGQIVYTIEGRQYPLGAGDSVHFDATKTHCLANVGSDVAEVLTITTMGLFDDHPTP
# Assay: EMSA
# Settings: 10 mM Tris-HCl pH 7.5, 50 mM KCl, 1 mM DTT, 1% glycerin, 10 mM MgCl2, 1 ug/ul poly(dI-dC), 25 C, 30 min; 6.5% polyacrylamide gel
sequence,measurement,value
CGGGTATCGTACTAGGTGCATCAAACGCTGCGGTCTATTGTTAAGTGGGACTGAAATGTGCCTTTCCGGCACAACGCCAACTCTATAGA (double strand) [PlasR-WT],binding,binds
